These results are taken from patent publication US20190247480A1.

For the experiment, the target named is HLA-A3 (human). As to the kind of experiment: assembly assay, stabilisation of HLA-A3 in T2-A3 lysates, W6/32 immunoprecipitation.

In the case of RLGLQVRKNK [Rho1L2 (…), modified RhoC peptide with Leu at position 2], the C50 value (peptide concentration required for half maximal recovery of class I MHC molecules) came out at 4. RAGLQVRKNK [Rho1 (…), native RhoC-derived peptide]: the C50 value (peptide concentration required for half maximal recovery of class I MHC molecules) was over 40.
